Assay results from patent US20220406376A1 (MacroGenics, published 2022).

What was measured:
[1] = target: T1, HER2/neu on the surface of target cells (N87, JIMT-1, MCF-7, MDA-MB231) (UniProt P04626 23-1255, limits assumed); experiment: flow cytometry on JIMT-1 cells, anti-hFc APC MFI
T1 construct: whole, on cells
Description: (§1) CD137×TA Binding Molecules, DART-B, DART-D, DART-G and the control molecules DART-3 and DART-6 were additionally evaluated for their ability to bind to HER2/neu expressed on N87 cells (FIG. 13A) and JIMT-1 cells (FIG. 13B). For such evaluation, 100 μL of HER2/neu expressing target cells (1.0×1⁰⁶ cells/mL) and 100 μL of serially diluted (5- or 10-fold dilutions) test article (bispecific diabody) were added to each well of microtiter assay plate(s), mixed and incubated at RT for 45 min. The cells were washed with FACS Buffer and secondary antibody (anti-human-Fc region-APC) was then added to each well; mixed and incubated at RT for 30 min. Cells were washed and resuspended in 100 μL FACS Buffer and analyzed by flow cytometry (BD LSR Fortessa or FACSCanto 11) for cell event collection. Data analysis were performed via FloJo v10.

[2] = target: T2, extracellular portion of cynomolgus monkey CD137 fused to a histidine-containing peptide (cynomolgus monkey, UniProt A9YYE7 24-186); experiment: SPR (BIACORE); molecule captured on anti-human Fc; cynoCD137 6.25-100 nM; column head ×10^-4 applied as printed
T2 construct: extracellular domain; also called cynoCD137
T2 sequence: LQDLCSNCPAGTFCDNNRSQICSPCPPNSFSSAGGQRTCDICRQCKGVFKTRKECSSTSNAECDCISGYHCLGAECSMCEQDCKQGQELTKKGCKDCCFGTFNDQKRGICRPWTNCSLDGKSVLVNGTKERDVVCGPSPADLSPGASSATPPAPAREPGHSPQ
Description: (§2) The amino acid sequences of these clones were incorporated into the 5 chain diabody DART-G to yield optimized DART-G molecules (designated as DART-G1, DART-G2; DART-G3, and DART-G4). The binding affinity of DART-G2, DART-G3, and DART-G4 were evaluated via BIAcore (Table 11). For such evaluation, His-tagged soluble human CD137 (huCD137) or cynomolgus monkey CD137 (cynoCD137) (containing an extracellular portion of human or cynomolgus monkey CD137 fused to a histidine-containing peptide) was passed over a surface coated with immobilized antibody. Briefly, each test molecule was captured onto an F(ab)₂ goat-anti-human Fc-coated surface and then incubated in the presence of different concentrations (6.25-100 nM) of huCD137 or cynoCD137. The kinetics of binding were determined via BIACORE® analysis binding (normalized 1:1 Langmuir binding model).

[3] = target: T3, CD137 on the surface of cells (activated human T cells; engineered CHO cells) (human, UniProt Q07011 24-255); experiment: flow cytometry on activated pan T cells gated CD8, anti-hFc APC MFI
T3 construct: whole, on cells; also called human CD137; cell surface expressed CD137
T3 sequence (Q07011 24-255, change not shown): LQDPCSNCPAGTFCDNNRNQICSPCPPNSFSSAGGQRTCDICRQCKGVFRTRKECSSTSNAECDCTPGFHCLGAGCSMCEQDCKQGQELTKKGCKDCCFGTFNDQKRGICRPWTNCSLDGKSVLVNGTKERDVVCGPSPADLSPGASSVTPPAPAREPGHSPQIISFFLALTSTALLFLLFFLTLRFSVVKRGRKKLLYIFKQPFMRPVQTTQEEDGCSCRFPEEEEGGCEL

[4] = target: T2, extracellular portion of cynomolgus …; experiment: SPR (BIACORE); molecule captured on anti-human Fc; cynoCD137 6.25-100 nM; 1:1 Langmuir
Description: as §2

[5] = target: T1, HER2/neu on the surface of target cells …; experiment: flow cytometry on N87 gastric cancer cells, anti-hFc APC MFI
[6] = target: T4, extracellular portion of human CD137 fused to a histidine-containing peptide (human, UniProt Q07011 24-186); experiment: SPR (BIACORE); molecule captured on anti-human Fc; huCD137 6.25-100 nM; 1:1 Langmuir
T4 construct: extracellular domain; also called huCD137; His-tagged soluble human CD137
Description: as §2

[7] = target: T3, CD137 on the surface of cells …; experiment: flow cytometry on activated CD8+ T cells (CD8 FITC), anti-hFc APC MFI
[8] = target: T1, HER2/neu on the surface of target cells …; experiment: flow cytometry on N87 cells, anti-hFc APC MFI
Description: as §1

[9] = target: T3, CD137 on the surface of cells …; experiment: flow cytometry on activated pan T cells gated CD8, anti-hFc APC MFI; remark: listed apart in the source
[10] = target: T1, HER2/neu on the surface of target cells …; experiment: flow cytometry on N87 gastric cancer cells, anti-hFc APC MFI; remark: listed apart in the source
[11] = target: T3, CD137 on the surface of cells …; experiment: flow cytometry on CD137-expressing CHO cells (CHO/137), anti-hFc APC MFI

B1: DART-D (bispecific antibody, human IgG1, kappa, L234A L235A)
heavy: QVQLVQSGAEVKKPGASVKVSCKASGYTFTNYGMNWVRQAPGQGLEWMGWINTNIGEPTYTEEFKGRVTMTRDTSISTAYMELSRLRSDDTAVYYCARDDGYGNRVSYWGQGTLVTVSSASTKGPSVFPLAPSSKSTSGGTAALGCLVKDYFPEPVTVSWNSGALTSGVHTFPAVLQSSGLYSLSSVVTVPSSSLGTQTYICNVNHKPSNTKVDKRVEPKSCDKTHTCPPCPAPEAAGGPSVFLFPPKPKDTLMISRTPEVTCVVVDVSHEDPEVKFNWYVDGVEVHNAKTKPREEQYNSTYRVVSVLTVLHQDWLNGKEYKCKVSNKALPAPIEKTISKAKGQPREPQVYTLPPSREEMTKNQVSLSCAVKGFYPSDIAVEWESNGQPENNYKTTPPVLDSDGSFFLVSKLTVDKSRWQQGNVFSCSVMHEALHNRYTQKSLSLSPGK
light: DIQMTQSPSSLSASVGDRVTITCKASQDISNYLSWFQQKPGKAPKTLIYRANRLQSGVPSRFSGSGSGTDFTLTISSLQPEDFATYYCLQHDEFPWTFGQGTKLEIKRTVAAPSVFIFPPSDEQLKSGTASVVCLLNNFYPREAKVQWKVDNALQSGNSQESVTEQDSKDSTYSLSSTLTLSKADYEKHKVYACEVTHQGLSSPVTKSFNRGEC
chain 1: QVQLVQSGAEVKKPGASVKVSCKASGYTFTNYGMNWVRQAPGQGLEWMGWINTNIGEPTYTEEFKGRVTMTRDTSISTAYMELSRLRSDDTAVYYCARDDGYGNRVSYWGQGTLVTVSSASTKGPSVFPLAPSSKSTSGGTAALGCLVKDYFPEPVTVSWNSGALTSGVHTFPAVLQSSGLYSLSSVVTVPSSSLGTQTYICNVNHKPSNTKVDKRVEPKSCDKTHTCPPCPAPEAAGGPSVFLFPPKPKDTLMISRTPEVTCVVVDVSHEDPEVKFNWYVDGVEVHNAKTKPREEQYNSTYRVVSVLTVLHQDWLNGKEYKCKVSNKALPAPIEKTISKAKGQPREPQVYTLPPSREEMTKNQVSLWCLVKGFYPSDIAVEWESNGQPENNYKTTPPVLDSDGSFFLYSKLTVDKSRWQQGNVFSCSVMHEALHNHYTQKSLSLSPGGGGSGGGSGGGDIQMTQTTSSLSASLGDRVTISCRPSQDISNYLNWYQQKPDGTVKLLIYYTSRLRSGVPSRFSGSGSGTDYSLTISNLEQEDIATYFCQQGDTLPYTFGGGTKLEIKGGGSGGGGQVQLQQPGAELVRPGASVKLSCKASGYTFTSYWINWVKQRPGQGLEWIGNIYPSDSYTNYNQKFKDKATLTVDKSSSTAYMQLSSPTSEDSAVYYCTRDYGSSYSFDYWGQGTTLTVSSGGCGGGEVAALEKEVAALEKEVAALEKEVAALEK
chain 2: DIQMTQTTSSLSASLGDRVTISCRPSQDISNYLNWYQQKPDGTVKLLIYYTSRLRSGVPSRFSGSGSGTDYSLTISNLEQEDIATYFCQQGDTLPYTFGGGTKLEIKGGGSGGGGQVQLQQPGAELVRPGASVKLSCKASGYTFTSYWINWVKQRPGQGLEWIGNIYPSDSYTNYNQKFKDKATLTVDKSSSTAYMQLSSPTSEDSAVYYCTRDYGSSYSFDYWGQGTTLTVSSGGCGGGKVAALKEKVAALKEKVAALKEKVAALKE
[1]
  EC50 (read off the curve): ~0.03 µg/mL
[2]
  koff: 0.031 s⁻¹
[3]
  EC50 (read off the curve): ~0.2 nM
[4]
  Kd: 67 nM
  kon: 460000 M⁻¹ s⁻¹
[5]
  EC50 (read off the curve): ~0.5 nM
[6]
  Kd: 53 nM
  koff: 0.025 s⁻¹
  kon: 470000 M⁻¹ s⁻¹
[7]
  EC50 (read off the curve): ~0.02 µg/mL
[8]
  EC50 (read off the curve): ~0.07 µg/mL
[9]
  EC50 (read off the curve): ~0.2 nM
[10]
  EC50 (read off the curve): ~0.5 nM
[11]
  EC50 (read off the curve): ~0.02 µg/mL
